Measured values published in the supplement of paper PMC11246515.
± gives the standard deviation of the averaged measurements.

Test: total protein half-life in vivo (active degradation + dilution); higher = more stable protein
[1] = E. coli NCM3722 delta-clpP delta-lon delta-hslV, growth: N-lim chemostat, doubling time 6 h
[2] = wild type E. coli NCM3722, growth: C-lim chemostat, doubling time 6 h
[3] = wild type E. coli NCM3722, growth: N-lim chemostat, doubling time 12 h
[4] = wild type E. coli NCM3722, growth: P-lim chemostat, doubling time 12 h
[5] = E. coli NCM3722 delta-clpP, growth: N-lim chemostat, doubling time 6 h
[6] = E. coli NCM3722 delta-hslV, growth: N-lim chemostat, doubling time 6 h
[7] = E. coli NCM3722 delta-lon, growth: N-lim chemostat, doubling time 6 h
[8] = E. coli NCM3722 delta-smpB, growth: N-lim chemostat, doubling time 6 h
[9] = wild type E. coli NCM3722, growth: C-lim chemostat, doubling time 3 h
[10] = wild type E. coli NCM3722, growth: C-lim chemostat, doubling time 12 h
[11] = wild type E. coli NCM3722, growth: N-lim chemostat, doubling time 6 h
[12] = wild type E. coli NCM3722, growth: P-lim chemostat, doubling time 6 h

Sequence	total protein half-life in vivo [1] [h]	total protein half-life in vivo [2] [h]	total protein half-life in vivo [3] [h]	total protein half-life in vivo [4] [h]	total protein half-life in vivo [5] [h]	total protein half-life in vivo [6] [h]	total protein half-life in vivo [7] [h]	total protein half-life in vivo [8] [h]	total protein half-life in vivo [9] [h]	total protein half-life in vivo [10] [h]	total protein half-life in vivo [11] [h]	total protein half-life in vivo [12] [h]
MFSEVMRYILDLGPTVMLPIVIIIFSKILGMKAGDCFKAGLHIGIGFVGIGLVIGLMLDSIGPAAKAMAENFDLNLHVVDVGWPGSSPMTWASQIALVAIPIAILVNVAMLLTRMTRVVNVDIWNIWHMTFTGALLHLATGSWMIGMAGVVIHAAFVYKLGDWFARDTRNFFELEGIAIPHGTSAYMGPIAVLVDAIIEKIPGVNRIKFSADDIQRKFGPFGEPVTVGFVMGLIIGILAGYDVKGVLQLAVKTAAVMLLMPRVIKPIMDGLTPIAKQARSRLQAKFGGQEFLIGLDPALLLGHTAVVSASLIFIPLTILIAVCVPGNQVLPFGDLATIGFFVAMAVAVHRGNLFRTLISGVIIMSITLWIATQTIGLHTQLAANAGALKAGGMVASMDQGGSPITWLLIQVFSPQNIPGFIIIGAIYLTGIFMTWRRARGFIKQEKVVLAE	6.09											
MFSGLLIILVPLIVGYLIPLRQQAALKVINQLLSWMVYLILFFMGISLAFLDNLASNLLAILHYSAVSITVILLCNIAALMWLERGLPWRNHHQQEKLPSRIAMALESLKLCGVVVIGFAIGLSGLAFLQHATEASEYTLILLLFLVGIQLRNNGMTLKQIVLNRRGMIVAVVVVVSSLIGGLINAFILDLPINTALAMASGFGWYSLSGILLTESFGPVIGSAAFFNDLARELIAIMLIPGLIRRSRSTALGLCGATSMDFTLPVLQRTGGLDMVPAAIVHGFILSLLVPILIAFFSA		3.12	8.87	8.67 ± 0.3								
MFSIKPGPRNLPIDNPTLLSWNITDGDLNSKLNTLEYLNCITNIINSCGVYPQGLKDREIISTFHAEKVINDLLKNDYKISLSPDTTYRELNKAAQRSITAPDRIGERKTWVYQRDTMIERGDNSGVYQYGRAEHFTHIISDKPSPKDKYVAYAINIPDYELAADVYNINVTSPSGQQETFKILINLEHLRQTLERKSLTAVQKSQCEIITPKKPGEAILHAFNATYQQIRENMSEFARCHYGYIQIPPVTTFRADGPETPEEEKGYWFHAYQPEDLCTIHNPMGDLQDFIALVKDAKKFGIDIIPDYTFNFMGIGGSGKNDLDYPSADIRAKISKDIEGGIPGYWQGQVLIPFIKDPVTKERKQIHPEDIHLTAKDFEASKDNISKDEWENLHALKEKRLNGMPKTTPKSDQVIMLQNQYVREMRKYGVRGLRYDAAKHSKHEQIERSITPPLKNYNERLHNTNLFNPKYHKKAVMNYMEYLVTCQLDEQQMSSLLYERDDLSAIDFSLLMKTIKAFSFGGDLQTLASKPGSTISSIPSERRILININHDFPNNGNLFNDFLFNHQQDEQLAMAYIAALPFSRPLVYWDGQVLKSTTEIKNYDGSTRVGGEAWLNKGCSTYQQLYNEFHALYIDKAGIWSAFEGVSATKNVLAFSRGDSVNINHSPHDGLVIINKGNEEVEGTWPNKLQPGIYKNMGSNSVNIIINNTRKIIPPGKVFTLRGGTLNINIPGRSALLLGKTGEPPNYLYL	4.26 ± 0.095	4.93	5.65	11.3 ± 3.7	3.78	3.6 ± 0.55	3.86 ± 0.15	3.93 ± 0.2	3.14 ± 0.21	9.02	3.51	4.45
MFTATEAVPVAKVVAGNKRYPGVVALDNVNFTLNKGEVRALLGKNGAGKSTLIRMLTGSERPDSGDIWIGETRLEGDEATLTRRAAELGVRAVYQELSLVEGLTVAENLCLGQWPRRNGMIDYLQMAQDAQRCLQALGVDVSPEQLVSTLSPAQKQLVEIARVMKGEPRVVILDEPTSSLASAEVELVISAVKKMSALGVAVIYVSHRMEEIRRIASCATVMRDGQVAGDVMLENTSTHHIVSLMLGRDHVDIAPVAPQEIVDQAVLEVRALRHKPKLEDISFTLRRGEVLGIAGLLGAGRSELLKAIVGLEEYEQGEIVINGEKITRPDYGDMLKRGIGYTPENRKEAGIIPWLGVDENTVLTNRQKISANGVLQWSTIRRLTEEVMQRMTVKAASSETPIGTLSGGNQQKVVIGRWVYAASQILLLDEPTRGVDIEAKQQIYRIVRELAAEGKSVVFISSEVEELPLVCDRILLLQHGTFSQEFHAPVNVDELMSAILSVH										7.2 ± 4.9		4.92
MFTGIVQGTAKLVSIDEKPNFRTHVVELPDHMLDGLETGASVAHNGCCLTVTEINGNHVSFDLMKETLRITNLGDLKVGDWVNVERAAKFSDEIGGHLMSGHIMTTAEVAKILTSENNRQIWFKVQDSQLMKYILYKGFIGIDGISLTVGEVTPTRFCVHLIPETLERTTLGKKKLGARVNIEIDPQTQAVVDTVERVLAARENAMNQPGTEA [P0AFU8]	4.8 ± 0.2	5.3745 ± 0.003	6.8 ± 0.16	11.6 ± 0.24	4.397 ± 0.01	4.123 ± 0.0054	4.774 ± 0.047	4.561 ± 0.029	3.06 ± 0.28	12.1 ± 4.4	4.25 ± 0.16	5.96 ± 0.6
MFTIKTDDLTHPAVQALVAYHISGMLQQSPPESSHALDVQKLRNPTVTFWSVWEGEQLAGIGALKLLDDKHGELKSMRTAPNYLRRGVASLILRHILQVAQDRCLHRLSLETGTQAGFTACHQLYLKHGFADCEPFADYRLDPHSRFLSLTLCENNELP			1.92		1.46 ± 0.029	0.809	0.314	0.854 ± 0.023			1.03 ± 0.61	
MGAYLIRRLLLVIPTLWAIITINFFIVQIAPGGPVDQAIAAIEFGNAGVLPGAGGEGVRASHAQTGVGNISDSNYRGGRGLDPEVIAEITHRYGFDKPIHERYFKMLWDYIRFDFGDSLFRSASVLTLIKDSLPVSITLGLWSTLIIYLVSIPLGIRKAVYNGSRFDVWSSAFIIIGYAIPAFLFAILLIVFFAGGSYFDLFPLRGLVSANFDSLPWYQKITDYLWHITLPVLATVIGGFAALTMLTKNSFLDEVRKQYVVTARAKGVSEKNILWKHVFRNAMLLVIAGFPATFISMFFTGSLLIEVMFSLNGLGLLGYEATVSRDYPVMFGTLYIFTLIGLLLNIVSDISYTLVDPRIDFEGR [P0AFU0]	7.09 ± 0.14	5.83 ± 1.1	11.8 ± 1.6	12.4 ± 0.79	5.97	6.39 ± 0.7	5.52 ± 0.49	5.85 ± 0.32	3.47 ± 0.61	13.9 ± 1.7	5.33	6.2
MGDSILSQAEIDALLNGDSEVKDEPTASVSGESDIRPYDPNTQRRVVRERLQALEIINERFARHFRMGLFNLLRRSPDITVGAIRIQPYHEFARNLPVPTNLNLIHLKPLRGTGLVVFSPSLVFIAVDNLFGGDGRFPTKVEGREFTHTEQRVINRMLKLALEGYSDAWKAINPLEVEYVRSEMQVKFTNITTSPNDIVVNTPFHVEIGNLTGEFNICLPFSMIEPLRELLVNPPLENSRNEDQNWRDNLVRQVQHSQLELVANFADISLRLSQILKLNPGDVLPIEKPDRIIAHVDGVPVLTSQYGTLNGQYALRIEHLINPILNSLNEEQPK	4.44 ± 0.11	3.96 ± 0.9							2.17 ± 0.39	6.79 ± 0.98		
MGEISITKLLVVAALVVLLFGTKKLRTLGGDLGAAIKGFKKAMNDDDAAAKKGADVDLQAEKLSHKE [P0A843]	1.78 ± 1	0.983	2.14 ± 0.98	1.59 ± 0.77	1.57 ± 0.29	1.48 ± 0.19	1.01 ± 0.26	1.05 ± 0.24	0.833 ± 0.13	1.3 ± 0.34	1.79	0.79
MGFTTRVKSEASEKKPFNFALFWDKYGTFFILAIIVAIFGSLSPEYFLTTNNITQIFVQSSVTVLIGMGEFFAILVAGIDLSVGAILALSGMVTAKLMLAGVDPFLAAMIGGVLVGGALGAINGCLVNWTGLHPFIITLGTNAIFRGITLVISDANSVYGFSFDFVNFFAASVIGIPVPVIFSLIVALILWFLTTRMRLGRNIYALGGNKNSAFYSGIDVKFHILVVFIISGVCAGLAGVVSTARLGAAEPLAGMGFETYAIASAIIGGTSFFGGKGRIFSVVIGGLIIGTINNGLNILQVQTYYQLVVMGGLIIAAVALDRLISK		5.91				5.22						
MGKAVIAIHGGAGAISRAQMSLQQELRYIEALSAIVETGQKMLEAGESALDVVTEAVRLLEECPLFNAGIGAVFTRDETHELDACVMDGNTLKAGAVAGVSHLRNPVLAARLVMEQSPHVMMIGEGAENFAFARGMERVSPEIFSTSLRYEQLLAARKEGATVLDHSGAPLDEKQKMGTVGAVALDLDGNLAAATSTGGMTNKLPGRVGDSPLVGAGCYANNASVAVSCTGTGEVFIRALAAYDIAALMDYGGLSLAEACERVVMEKLPALGGSGGLIAIDHEGNVALPFNTEGMYRAWGYAGDTPTTGIYREKGDTVATQ	4.9 ± 0.24	4.99 ± 0.29	4.78 ± 0.12	8.26 ± 0.14	3.77 ± 0.08	3.58 ± 0.043	3.62 ± 0.16	3.16 ± 0.25	2.78 ± 0.19	11.2 ± 4.6	3.47 ± 0.42	4.75 ± 0.052
MGKLGENVPLLIDKAVDFMASSQAFREYLKKLPPRNAIPSGIPDESVPLYLQRLEYYRRLYRPKQVEGQ [Q2M7R5]		4.09 ± 0.43	4.57 ± 1.1	8.27 ± 0.33	4.46 ± 1.4	3.56	3.4	3.22 ± 0.16	1.99 ± 0.42	4.69	2.94 ± 0.43	3.73 ± 0.57
MGKLTGKTALITGALQGIGEGIARTFARHGANLILLDISPEIEKLADELCGRGHRCTAVVADVRDPASVAAAIKRAKEKEGRIDILVNNAGVCRLGSFLDMSDDDRDFHIDINIKGVWNVTKAVLPEMIARKDGRIVMMSSVTGDMVADPGETAYALTKAAIVGLTKSLAVEYAQSGIRVNAICPGYVRTPMAESIARQSNPEDPESVLTEMAKAIPMRRLADPLEVGELAAFLASDESSYLTGTQNVIDGGSTLPETVSVGI	5.394 ± 0.017	6.12 ± 0.41	6.28	14.8 ± 0.61	4.09 ± 0.14			4.12 ± 0.29	2.91 ± 0.32	10.2 ± 1.1	5.35	6.25 ± 0.41
MGKTISIKVLFGIYLLLMAGKVFAFSCNVDGGSSIGAGTTSVYVNLDPVIQPGQNLVVDLSQHISCWNDYGGWYDTDHINLVQGSAFAGSLQSYKGSLYWNNVTYPFPLTTNTNVLDIGDKTPMPLPLKLYITPVGAAGGVVIKAGEVIARIHMYKIATLGSGNPRNFTWNIISNNNVVMPTGGCTVDSRNVTVDLPDFPGSAEIPLGVYCSSEQKLSFYLSGATTDSSRQVFANTAPDATKASGVGVTLMRNGKILATGENVSLGTVNKSKVPLGLSATYGQTGNKVSAGTVQSVIGVTFIYE		3.09	12.7 ± 0.21		5.18 ± 0.35			5.306 ± 0.0055	2.85 ± 0.12	8.385 ± 0.065	6.56	
MGKTNDWLDFDQLAEEKVRDALKPPSMYKVILVNDDYTPMEFVIDVLQKFFSYDVERATQLMLAVHYQGKAICGVFTAEVAETKVAMVNKYARENEHPLLCTLEKA [P0A8Q6]	5.9 ± 0.35	0.628		0.869		0.855 ± 0.013	1.05		0.522	0.456		
MGMLEARELLCERDERTLFSGLSFTLNAGEWVQITGSNGAGKTTLLRLLTGLSRPDAGEVLWQGQPLHQVRDSYHQNLLWIGHQPGIKTRLTALENLHFYHRDGDTAQCLEALAQAGLAGFEDIPVNQLSAGQQRRVALARLWLTRATLWILDEPFTAIDVNGVDRLTQRMAQHTEQGGIVILTTHQPLNVAESKIRRISLTQTRAA	6.22							5.33			5.94 ± 0.86	
